Consider 1 protein from article PMC10629159.

This series can be described thus: BioID2 proximity profile; Myc immunofluorescence. As to conditions: glycan lost; control: EMP3 WT bait.

B1: Epithelial membrane protein 3 (EMP3): N47A (protein)
parent chain: MSLLLLVVSALHILILILLFVATLDKSWWTLPGKESLNLWYDCTWNNDTKTWACSNVSENGWLKAVQVLMVLSLILCCLSFILFMFQLYTMRRGGLFYATGLCQLCTSVAVFTGALIYAIHAEEILEKHPRGGSFGYCFALAWVAFPLALVSGIIYIHLRKRE
As to B1, the localisation_or_trafficking result is “no change”.
